Measurements taken from the Human Domainome abundance scans (Beltran et al. 2025).
± gives the uncertainty stated by the source.

B1: Transcription elongation factor A N-terminal and central domain-containing protein, residues 30 to 77; numbered along this chain, Q8N8B7 (parent)
chain: LTELETIYVTKEHLQETDVVRAVYRVLKNCPSVALKKKAKCLLSKWKA

Variants of: B1
Assay: abundance fitness (aPCA) (normalised: wild type 0, dead -1); higher = more abundant; growth selection in yeast, the domain comes from the species named
Conditions: Homo sapiens

Abundance fitness, by site and new letter:
K47: E -1.08 ± 0.35 | L -0.508 ± 0.13 | A -0.739 ± 0.17 | S -0.967 ± 0.19 | F 0.101 ± 0.44 | Q -0.46 ± 0.2 | P -0.334 ± 0.27 | G -0.605 ± 0.12
C41: P -1.22 ± 0.26 | G 0.025 ± 0.083 | E 0.019 ± 0.17 | K 0.171 ± 0.13 | N 0.268 ± 0.38 | T -0.073 ± 0.21
V20: P -0.19 ± 0.12 | L 0.113 ± 0.079 | F 0.071 ± 0.21 | E -0.561 ± 0.18 | D -0.215 ± 0.15
V9: Y -0.147 ± 0.12 | N 0.232 ± 0.12 | G 0.061 ± 0.072 | T 0.087 ± 0.12 | S 0.085 ± 0.085 | K 0.251 ± 0.12 | Q 0.265 ± 0.096 | F 0.045 ± 0.16 | E 0.318 ± 0.087 | I -0.163 ± 0.086
K45: F 0.204 ± 0.27 | L -0.513 ± 0.13 | E -0.748 ± 0.13 | V -0.918 ± 0.17 | S -0.55 ± 0.11 | I -1.01 ± 0.4 | N -0.361 ± 0.14 | Q -0.782 ± 0.23
V26: W 0.447 ± 0.11 | P -0.131 ± 0.14 | E -0.836 ± 0.18 | A 0.154 ± 0.076 | K -0.149 ± 0.22 | Q -0.183 ± 0.27 | L -0.172 ± 0.088 | D -0.727 ± 0.21
V19: K -0.39 ± 0.14 | L -0.121 ± 0.092 | I -0.133 ± 0.16 | D -0.72 ± 0.38 | F -0.362 ± 0.18
Q15: C -0.002 ± 0.12 | F -0.212 ± 0.16 | H -0.138 ± 0.17 | S -0.208 ± 0.083 | E -0.016 ± 0.1 | P 0.134 ± 0.15
K28: A -0.509 ± 0.09 | N -0.445 ± 0.14 | G -0.402 ± 0.083 | F -0.247 ± 0.13 | D -0.789 ± 0.19 | W 0.04 ± 0.092 | I -0.149 ± 0.15
H13: V -0.698 ± 0.094 | T 0 ± 0.071 | Y -0.479 ± 0.073 | I -0.668 ± 0.099 | E 0.262 ± 0.12 | K 0.106 ± 0.083 | N 0.07 ± 0.078 | F -0.428 ± 0.091
R25: F -0.811 ± 0.23 | Y -0.805 ± 0.44 | G -0.136 ± 0.08 | Q -0.038 ± 0.27 | K -0.364 ± 0.11 | S -0.257 ± 0.086
K37: W -0.68 ± 0.11 | I -0.337 ± 0.15 | S -0.346 ± 0.092 | T -0.574 ± 0.1 | A -0.365 ± 0.086
A39: N -0.61 ± 0.36 | L -0.089 ± 0.08
K11: G -0.022 ± 0.066 | M -0.246 ± 0.16 | T -0.555 ± 0.17 | I -0.08 ± 0.12
L43: E -0.915 ± 0.23 | F 0.047 ± 0.12
K36: H -0.633 ± 0.18 | L -0.137 ± 0.079 | Y 0.049 ± 0.14 | I -0.152 ± 0.15 | E -1.32 ± 0.24 | M 0.085 ± 0.1 | Q -0.063 ± 0.12
Y8: N -0.043 ± 0.26 | F -0.339 ± 0.2 | R -0.094 ± 0.12 | E 0.448 ± 0.24
E5: N -0.587 ± 0.17 | Q -0.498 ± 0.18 | H -0.346 ± 0.18 | R -0.769 ± 0.1 | G -0.775 ± 0.089 | D -0.186 ± 0.12 | A -0.235 ± 0.12
C30: N -0.274 ± 0.14 | I 0.204 ± 0.15 | V 0.062 ± 0.08 | G 0.012 ± 0.064 | P -0.244 ± 0.14 | L 0.075 ± 0.086 | H -0.743 ± 0.24
W46: R -0.758 ± 0.12 | A 0.105 ± 0.097 | P -0.765 ± 0.23 | C -0.313 ± 0.12 | I 0.258 ± 0.17 | S -0.96 ± 0.14 | N -0.823 ± 0.34 | T -0.705 ± 0.18 | D -1.05 ± 0.21
E12: K 0.138 ± 0.14 | I -0.707 ± 0.15 | L -0.792 ± 0.096 | F -0.742 ± 0.16 | G -0.598 ± 0.086
K38: Q -0.645 ± 0.19 | Y -0.265 ± 0.18 | G -0.209 ± 0.074 | P -0.679 ± 0.23 | I -0.266 ± 0.16 | A 0.023 ± 0.097 | C 0.099 ± 0.17
V23: D -0.578 ± 0.16 | G -0.72 ± 0.08 | Q -0.901 ± 0.16 | N -1.04 ± 0.23 | M -0.087 ± 0.12 | I 0.189 ± 0.091 | F -0.021 ± 0.27 | P -0.833 ± 0.16 | E -0.584 ± 0.11
A22: P -0.143 ± 0.096 | E -0.328 ± 0.09 | M -0.053 ± 0.1 | R 0.277 ± 0.066 | S -0.007 ± 0.09 | H -0.328 ± 0.15 | D -0.209 ± 0.095 | G -0.046 ± 0.066 | V -0.37 ± 0.079 | Q -0.082 ± 0.11 | F -0.308 ± 0.13 | Y -0.074 ± 0.11
D18: I -0.263 ± 0.26 | S 0.353 ± 0.084 | P -0.154 ± 0.14 | Y 0.057 ± 0.14 | W 0.172 ± 0.12 | F 0.169 ± 0.17 | E -0.382 ± 0.1 | K -0.136 ± 0.11 | L -0.077 ± 0.097 | G 0.354 ± 0.069
